Source: paper PMC8383266 (Biochemistry, 2021)

Experiments:
[1] = test system: O=C(Cc1cccs1)N[C@@H]1C(=O)N2C(C(=O)O)=C(/C=C/c3ccc([N+](=O)[O-])cc3[N+](=O)[O-])CS[C@H]12; assay: purified protein; conditions: pH 6.4; 25.0 °C
[2] = test system: CC1(C)S[C@@H]2[C@H](NC(=O)[C@H](N)c3ccccc3)C(=O)N2[C@H]1C(=O)O; assay: purified protein; conditions: pH 6.4; 25.0 °C

Substance: (Mycobacterium tuberculosis H37Rv)
- Km [1]: 560 µM
- kcat [1]: 220 s⁻¹
- kcat/Km [1]: 390000 M⁻¹ s⁻¹
- kcat [2]: 2.1 s⁻¹
- kcat/Km [2]: 17000 M⁻¹ s⁻¹
